# Experiment: yeast display, Sf9 membrane polyspecificity reagent, FACS + sequencing; frameworks hold sequencing errors
# Procedure, shortened: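 In a synthetic yeast display library (Saccharomyces cerevisiae BJ5465), nanobody expression was induced with galactose for 36–48 hours. FACS gates were set low and high (top ~1%) using anti-HA fluorescence for expression and streptavidin fluorescence for binding of the Sf9 membrane reagent. Each polyreactivity label is drawn from the gate of origin.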
row,Sequence,polyreactivity (PSR sort gate)
1,QVQLVESGGGLVQAGGSLRLSCAASGITIKAYAMGWYRQAPGKERELVAAISGSGGSTYYADSVEGRFTISRDNAKNTVYLQMNSLKPEDTAVYYCAARAVSLTGYRFGYWGQGTQVTVSS,high polyreactivity
2,QVQLVESGGGLVQAGGSLRLSCAASGITILNYVMGWYRQAPGKERELVAGINFSGDGTYYADSVKGRFTISRDNAKNTVFLLMNSLKPEDTAVYYCAADWLSVSRIYYSWGQGTQVTVSS,low polyreactivity
3,QVQLVESGGGLVQAGGSLRLSCAASGITILWNVMGWYRQAPGKERELVATITSIGGITNYADSVKGRFTISRDNAKNTVYLQMNSLKPEDTAVYYCARDDRDIRGVSGREGFLYDYWGQGTQVTVSS,low polyreactivity
4,QVQLVESGGGLVQAGGSLRLSCAASGITIRFYAMGWYRQAPGKERELVAAITRGGSTTYADSVKGRFTISRDNAKNTVYLQMNSLKPEDTAVYYCNAQYQSGYYTSYPDRFDYWGQGTQVTVSS,low polyreactivity
5,QVQLVESGGGLVQAGGSLRLSCAASGITIRGYAMGWYRQAPGKERELVAAINTRTSTYYADSVKGRFTISRDNAKNTVYLQMNSLKPEDTAVYYCNRDPVYYDFDYWGQGTQVTVSS,low polyreactivity
6,QVQLVESGGGLVQAGGSLRLSCAASGITIRRYAMGWYRQAPGKERELVAAITTGGGGTYYADSVKGRFTISRDNAKNTVYLQMNSLKPEDTAVYYCAATYWRTYPSYYWGQGTQVTVSS,high polyreactivity
7,QVQLVESGGGLVQAGGSLRLSCAASGITIVNYVMGWYRQAPGKERELVAAISIGGGTYYADSVKGRFTISRDNAKNTVYLQMNSLKPEDTAVYYCNARSEVSYWWGGYWGQGTQVTVSS,low polyreactivity
8,QVQLVESGGGLVQAGGSLRLSCAASGITIVWYAMGWYRLAPGKEREFVASISWRGGTTYYADSVKGRFTISRDNAKNTVDLQMNSLKPEDTAVYYCAARTRWWYRYDYWGQGTQVTVSS,high polyreactivity
9,QVQLVESGGGLVQAGGSLRLSCAASGITIYHNAMGWYRPAPGKERELVAAISWSGGSTYYADSVKGRFTISRDNANNTVYLQMNSLKPEDSAVYYCAAYQRVREGHDYEYWGQGTQVSVSS,high polyreactivity
10,QVQLVESGGGLVQAGGSLRLSCAASGITIYKNAMGWYRQAPGKERELFAAITRGGSTYYADSVKGRFTISRDNAKNTVYLQMNCLKPEDTAVYYCNKVYHWQTPGFGYGYWGQGTQVTVST,high polyreactivity
11,QVQLVESGGGLVQAGGSLRLSCAASGITIYVYAMGWYRQAPGTERELVAAITRSGGITSYADSVKGRFTISRDNAKNTVYLQMNSLKPEDTAVYYVAAESTNLHYHIQGVGYWGQGTQVTVSS,low polyreactivity
12,QVQLVESGGGLVQAGGSLRLSCAASGITLDRNYMGWYRQAPGKERELVAAISRSGVRTYYADSVKGRFTISRDNAKNTVYLQMNSLKPEDTAVYYCNKGYARRYASGYDYWGQGTQVTVSS,high polyreactivity
13,QVQLVESGGGLVQAGGSLRLSCAASGITLDVNALGWYRQAPGKERELVADITWSDDSTYYADSVKGRFTISRDNAKNTVYLQMNSLKPEDTAVYYCAADVSVSFHPRGYDYWGQGTQVTVSS,low polyreactivity
14,QVQLVESGGGLVQAGGSLRLSCAASGITLGRYAMGWYRQAPGKERELVAAISRSGGSTYYADSVKGRFTISRANAKTTVYLQMNSLKPEDTAVYYCNRRVYPTSDYDYWGQGTQVTVSS,high polyreactivity
15,QVQLVESGGGLVQAGGSLRLSCAASGITLKLYVMGWYRQAPGKERELVAAISRRGGSTYYADSVKGRFTISRDNAKNTVYLQMNSLKPEDTAVYYCAKDGTQYERQDPAYGYWGQGTQVTVSS,high polyreactivity
16,QVQLVESGGGLVQAGGSLRLSCAASGITLRLYAMGWYRQAPGKERELVAAISKRGGSTYYADSVKWRFTISRDNAKNTVYLQMNSQKPEDTAVYYCAADSGWEHRYDYWGQGTQVTVSS,high polyreactivity
17,QVQLVESGGGLVQAGGSLRLSCAASGITLTVYTMGWYRQAPGKERKLVAAITYGGTSTYYADSVKGRFTISRDNAKNTVYLQMNSLKPEDTAVYYCAARARIYNYWGQGTQVTVSS,high polyreactivity
18,QVQLVESGGGLVQAGGSLRLSCAASGITLTYYAMGWYRQAPGKERELVAAITWNGGHTYYADSVKGRFTISRDNAKNTVYLQMISQKPEDTAVYYCAAELWAYTWYWHSDYWGQGTQVTVSS,low polyreactivity
19,QVQLVESGGGLVQAGGSLRLSCAASGITLYAYVMGWYRQAPGKERELVAAIRSGGSTYYADSVKGRFTISRDNAKNTVYLQKNSLKPEDTAVYYCAAYYPLWGWGYDYWGQGTQVTVSS,high polyreactivity
20,QVQLVESGGGLVQAGGSLRLSCAASGITLYGNAMGWYRQAPGKEREFVAAISRSGDRTYYADSVKGRFTISRDNAKNTVYLPMYSLKPEDTAVYSCARDYRSYTGSYDTSYDYWGQGTQVTVSS,high polyreactivity
21,QVQLVESGGGLVQAGGSLRLSCAASGITLYGYTMGWYRQAPGKERELVAGISRGGSTYYADSVKGRFTISRDNAKNSVYLEMNSLKPDVTAVYYCAAAGWYRGDYWGQGTQVTVSS,high polyreactivity
22,QVQLVESGGGLVQAGGSLRLSCAASGITLYWYAMGWYRQAPGKERELVAAISRRGGTTYYADSVKGRFTISRDNAKNTVYLQMNSLKPEDTAVYYCAKAPDTQTSWSRQEGNYWGQGTQVTVSS,low polyreactivity
23,QVQLVESGGGLVQAGGSLRLSCAASGITSCFSAMGWYRPAPGQERELVAGISSGGSTNYADSVKGRFTISRDNAKNTVYLQMTSLKPEDTAVYYCPATFYNRYETRYYYWGQGTQVTVSS,high polyreactivity
24,QVQLVESGGGLVQAGGSLRLSCAASGITYEGYAMGWNRKAPGKERELVAAIRSSGTSTYYADSVKGRFTISRDNAKNSVYLQMNSLKPEDTAVYYCNRARSSSRYDYWGQGTQVTVSS,low polyreactivity
25,QVQLVESGGGLVQAGGSLRLSCAASGITYPRYTMGWYRQAPGKERQLVAAITRRSGSTNYADSVKGRITISRDNAKNTVYLQMNSLKPEDTAVYYCAAVVQVYDRGYHVIAKYYYWGQGTQVTVSS,high polyreactivity
26,QVQLVESGGGLVQAGGSLRLSCAASGITYYNAMGWYRQAAGKERELVARISWSSVSTYYADSVKGRFTISRDNAKNTVYLQMNSLKPEDTAVYYCAAEVRGSDYDYWGQGTQLTVSS,high polyreactivity
27,QVQLVESGGGLVQAGGSLRLSCAASGIYINAMGWYRQAPGKERELVAAISRGGSTYYADSVKGRFTISRDNAKNTVYLKMNSLKPEDTAVYYCAKLIGRWRLYHTFVKGDYWGQGTQVTVSS,high polyreactivity
28,QVQLVESGGGLVQAGGSLRLSCAASGIYPYYAMGWYRQAPGKERELVATISSADGPKYADSVKGRFTISRDNAKNTVYLQMNSLKPEDTAVYYCNAYVWSWHDYWGQGTQVTVSS,low polyreactivity
29,QVQLVESGGGLVQAGGSLRLSCAASGLICPLNAMGWYRQAPGKERELVAAITYSGGGTYYADSVKGRFTISRDNAKNTVDLQMNSLKAEDTAVYYCAADGSVSYYTYYYWGQGTHVTVSS,low polyreactivity
30,QVQLVESGGGLVQAGGSLRLSCAASGLIDSYYAMGWYRQAPGKERELVAVITSGGSTYYADSVKGRFTISRDNAKNTVYLQMNSLNPEDTAVYYCAARVRVSYNRYHGLYAVSRGDYWGQGTQVTVSS,high polyreactivity
